Test results from patent US20230322953A1 (HARBOUR BIOMED SHANGHAI, published 2023).

T1: human BCMA (human, UniProt Q02223 1-184)
T1 construct: whole, on cells; also called hBCMA; TNFRSF17
T1 sequence (looked up): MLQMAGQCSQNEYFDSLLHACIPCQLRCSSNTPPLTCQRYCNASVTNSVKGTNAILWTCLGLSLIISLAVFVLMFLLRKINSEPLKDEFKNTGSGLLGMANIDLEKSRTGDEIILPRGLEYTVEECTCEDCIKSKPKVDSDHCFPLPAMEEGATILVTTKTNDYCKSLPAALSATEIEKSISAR


Key:
human BCMA [1] = target: T1, human BCMA; assay: FACS on NCI-H929 cells
cynomolgus monkey BCMA = target: T2, cynomolgus monkey BCMA (cynomolgus monkey, UniProt A0A2K5UD97 1-183); assay: FACS on HEK293T/cyno BCMA cells
T2 construct: whole, on cells; also called cyno BCMA
T2 sequence (A0A2K5UD97 entry or part of it): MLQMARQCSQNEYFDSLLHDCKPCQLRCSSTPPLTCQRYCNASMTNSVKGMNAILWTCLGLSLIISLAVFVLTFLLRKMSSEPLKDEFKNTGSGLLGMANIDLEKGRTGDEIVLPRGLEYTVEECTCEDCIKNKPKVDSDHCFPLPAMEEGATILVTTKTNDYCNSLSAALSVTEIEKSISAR

human BCMA [2] = target: T1, human BCMA; assay: FACS on HEK293T/hBCMA cells, Experiment 2
[3] = target: T3, human 4-1BB (tumor necrosis factor receptor superfamily member 9) (human, UniProt Q07011 24-255); assay: flow cytometry (FACS) on CHO-K1/hu 4-1BB cells
T3 construct: whole, on cells; also called hu 4-1BB; CD137
T3 sequence (Q07011 24-255): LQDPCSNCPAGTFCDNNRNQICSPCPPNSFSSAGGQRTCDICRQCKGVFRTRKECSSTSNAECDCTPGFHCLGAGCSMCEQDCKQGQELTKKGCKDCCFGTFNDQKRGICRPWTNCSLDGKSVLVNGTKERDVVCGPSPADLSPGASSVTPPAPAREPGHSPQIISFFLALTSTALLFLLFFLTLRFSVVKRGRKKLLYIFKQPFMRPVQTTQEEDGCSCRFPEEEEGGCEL

| Binder | EC50 (human BCMA [1]) | Maximum MFI (human BCMA [1]) | Maximum MFI (cynomolgus monkey BCMA) | EC50 (human BCMA [2]) | Maximum MFI (human BCMA [2]) | EC50 [3] | Maximum MFI [3] |
| --- | --- | --- | --- | --- | --- | --- | --- |
| PR002892 (bispecific antibody, human IgG1, lambda, L234A L235A) light: QAVVTQEPSLTVSPGGTVTLTCRSSTGAVTTSNYANWVQQKPGQAPRGLIGGTNKRAPWTPARFSGSLLGDKAALTLLGAQPEDEAEYFCALWYSNLWVFGGGTKLTVLGQPKAAPSVTLFPPSSEELQANKATLVCLISDFYPGAVTVAWKADSSPVKAGVETTTPSKQSNNKYAASSYLSLTPEQWKSHRSYSCQVTHEGSTVEKTVAPTECS heavy: not shown EVQLVETGGGLIQPGGSLRLSCAASGFTVSDNYMTWVRQAPGKGLEWVSVIFSGGNTYYADSVKGRFTISRDNAKNTLYLQMNSLRAEDTALYYCARRNYDDTRGTDVFDIWGQGTMVTVSSGGGGSEVQLVETGGGLIQPGGSLRLSCAASGFTVSDNYMTWVRQAPGKGLEWVSVIFSGGNTYYADSVKGRFTISRDNAKNTLYLQMNSLRAEDTALYYCARRNYDDTRGTDVFDIWGQGTMVTVSSASEPKSSDKTHTCPPCPAPEAAGGPSVFLFPPKPKDTLMISRTPEVTCVVVDVSHEDPEVKFNWYVDGVEVHNAKTKPREEQYNSTYRVVSVLTVLHQDWLNGKEYKCKVSNKALPAPIEKTISKAKGQPREPQVCTLPPSREEMTKNQVSLSCAVKGFYPSDIAVEWESNGQPENNYKTTPPVLDSDGSFFLVSKLTVDKSRWQQGNVFSCSVMHEALHNHYTQKSLSLSPGK | 4.27 nM | 4360 | 15000 | 0.767 nM | 15500 |  |  |
| PR002898 (bispecific antibody, human IgG1, lambda, L234A L235A) light: QAVVTQEPSLTVSPGGTVTLTCRSSTGAVTTSNYANWVQQKPGQAPRGLIGGTNKRAPWTPARFSGSLLGDKAALTLLGAQPEDEAEYFCALWYSNLWVFGGGTKLTVLGQPKAAPSVTLFPPSSEELQANKATLVCLISDFYPGAVTVAWKADSSPVKAGVETTTPSKQSNNKYAASSYLSLTPEQWKSHRSYSCQVTHEGSTVEKTVAPTECS heavy: not shown EVQLVETGGGLIQPGGSLRLSCAASGFTVSDNYMTWVRQAPGKGLEWVSVIFSGGNTYYADSVKGRFTISRDNAKNTLYLQMNSLRAEDTALYYCARRNYDDTRGTDVFDIWGQGTMVTVSSGSEVQLVETGGGLIQPGGSLRLSCAASGFTVSDNYMTWVRQAPGKGLEWVSVIFSGGNTYYADSVKGRFTISRDNAKNTLYLQMNSLRAEDTALYYCARRNYDDTRGTDVFDIWGQGTMVTVSSASEPKSSDKTHTCPPCPAPEAAGGPSVFLFPPKPKDTLMISRTPEVTCVVVDVSHEDPEVKFNWYVDGVEVHNAKTKPREEQYNSTYRVVSVLTVLHQDWLNGKEYKCKVSNKALPAPIEKTISKAKGQPREPQVCTLPPSREEMTKNQVSLSCAVKGFYPSDIAVEWESNGQPENNYKTTPPVLDSDGSFFLVSKLTVDKSRWQQGNVFSCSVMHEALHNHYTQKSLSLSPGK | 1.94 nM | 3730 | 8190 | 0.791 nM | 12600 |  |  |
| PR002901 (bispecific antibody, human IgG1, lambda, L234A L235A) light: QAVVTQEPSLTVSPGGTVTLTCRSSTGAVTTSNYANWVQQKPGQAPRGLIGGTNKRAPWTPARFSGSLLGDKAALTLLGAQPEDEAEYFCALWYSNLWVFGGGTKLTVLGQPKAAPSVTLFPPSSEELQANKATLVCLISDFYPGAVTVAWKADSSPVKAGVETTTPSKQSNNKYAASSYLSLTPEQWKSHRSYSCQVTHEGSTVEKTVAPTECS heavy: not shown EVQLVETGGGLIQPGGSLRLSCAASGFTVSDNYMTWVRQAPGKGLEWVSVIFSGGNTYYADSVKGRFTISRDNAKNTLYLQMNSLRAEDTALYYCARRNYDDTRGTDVFDIWGQGTMVTVSSGSGSEVQLVETGGGLIQPGGSLRLSCAASGFTVSDNYMTWVRQAPGKGLEWVSVIFSGGNTYYADSVKGRFTISRDNAKNTLYLQMNSLRAEDTALYYCARRNYDDTRGTDVFDIWGQGTMVTVSSASEPKSSDKTHTCPPCPAPEAAGGPSVFLFPPKPKDTLMISRTPEVTCVVVDVSHEDPEVKFNWYVDGVEVHNAKTKPREEQYNSTYRVVSVLTVLHQDWLNGKEYKCKVSNKALPAPIEKTISKAKGQPREPQVCTLPPSREEMTKNQVSLSCAVKGFYPSDIAVEWESNGQPENNYKTTPPVLDSDGSFFLVSKLTVDKSRWQQGNVFSCSVMHEALHNHYTQKSLSLSPGK | 2.32 nM | 4180 | 11000 | 0.654 nM | 14700 |  |  |
| PR002950 (bispecific antibody, human IgG1, lambda, L234A L235A) light: QAVVTQEPSLTVSPGGTVTLTCRSSTGAVTTSNYANWVQQKPGQAPRGLIGGTNKRAPWTPARFSGSLLGDKAALTLLGAQPEDEAEYFCALWYSNLWVFGGGTKLTVLGQPKAAPSVTLFPPSSEELQANKATLVCLISDFYPGAVTVAWKADSSPVKAGVETTTPSKQSNNKYAASSYLSLTPEQWKSHRSYSCQVTHEGSTVEKTVAPTECS heavy: not shown EVQLVETGGGLIQPGGSLRLSCAASGFTVSDNYMTWVRQAPGKGLEWVSVIFSGGNTYYADSVKGRFTISRDNAKNTLYLQMNSLRAEDTALYYCARRNYDDTRGTDVFDIWGQGTMVTVSSGGGGSEVQLVETGGGLIQPGGSLRLSCAASGFTVSDNYMTWVRQAPGKGLEWVSVIFSGGNTYYADSVKGRFTISRDNAKNTLYLQMNSLRAEDTALYYCARRNYDDTRGTDVFDIWGQGTMVTVSSASEPKSSDKTHTCPPCPAPEAAGGPSVFLFPPKPKDTLMISRTPEVTCVVVDVSHEDPEVKFNWYVDGVEVHNAKTKPREEQYNSTYRVVSVLTVLHQDWLNGKEYKCKVSNKALPAPIEKTISKAKGQPREPQVCTLPPSREEMTKNQVSLSCAVKGFYPSDIAVEWESNGQPENNYKTTPPVLDSDGSFFLVSKLTVDKSRWQQGNVFSCSVMHEALHNHYTQKSLSLSPGK | 4.11 nM | 4190 | 26600 |  | 22100 |  |  |
| PR002956 (bispecific antibody, human IgG1, lambda, L234A L235A) light: QAVVTQEPSLTVSPGGTVTLTCRSSTGAVTTSNYANWVQQKPGQAPRGLIGGTNKRAPWTPARFSGSLLGDKAALTLLGAQPEDEAEYFCALWYSNLWVFGGGTKLTVLGQPKAAPSVTLFPPSSEELQANKATLVCLISDFYPGAVTVAWKADSSPVKAGVETTTPSKQSNNKYAASSYLSLTPEQWKSHRSYSCQVTHEGSTVEKTVAPTECS heavy: not shown EVQLVETGGGLIQPGGSLRLSCAASGFTVSDNYMTWVRQAPGKGLEWVSVIFSGGNTYYADSVKGRFTISRDNAKNTLYLQMNSLRAEDTALYYCARRNYDDTRGTDVFDIWGQGTMVTVSSGSEVQLVETGGGLIQPGGSLRLSCAASGFTVSDNYMTWVRQAPGKGLEWVSVIFSGGNTYYADSVKGRFTISRDNAKNTLYLQMNSLRAEDTALYYCARRNYDDTRGTDVFDIWGQGTMVTVSSASEPKSSDKTHTCPPCPAPEAAGGPSVFLFPPKPKDTLMISRTPEVTCVVVDVSHEDPEVKFNWYVDGVEVHNAKTKPREEQYNSTYRVVSVLTVLHQDWLNGKEYKCKVSNKALPAPIEKTISKAKGQPREPQVCTLPPSREEMTKNQVSLSCAVKGFYPSDIAVEWESNGQPENNYKTTPPVLDSDGSFFLVSKLTVDKSRWQQGNVFSCSVMHEALHNHYTQKSLSLSPGK | 3.95 nM | 3570 | 16200 |  | 17600 |  |  |
| PR002959 (bispecific antibody, human IgG1, lambda, L234A L235A) light: QAVVTQEPSLTVSPGGTVTLTCRSSTGAVTTSNYANWVQQKPGQAPRGLIGGTNKRAPWTPARFSGSLLGDKAALTLLGAQPEDEAEYFCALWYSNLWVFGGGTKLTVLGQPKAAPSVTLFPPSSEELQANKATLVCLISDFYPGAVTVAWKADSSPVKAGVETTTPSKQSNNKYAASSYLSLTPEQWKSHRSYSCQVTHEGSTVEKTVAPTECS heavy: not shown EVQLVETGGGLIQPGGSLRLSCAASGFTVSDNYMTWVRQAPGKGLEWVSVIFSGGNTYYADSVKGRFTISRDNAKNTLYLQMNSLRAEDTALYYCARRNYDDTRGTDVFDIWGQGTMVTVSSGSGSEVQLVETGGGLIQPGGSLRLSCAASGFTVSDNYMTWVRQAPGKGLEWVSVIFSGGNTYYADSVKGRFTISRDNAKNTLYLQMNSLRAEDTALYYCARRNYDDTRGTDVFDIWGQGTMVTVSSASEPKSSDKTHTCPPCPAPEAAGGPSVFLFPPKPKDTLMISRTPEVTCVVVDVSHEDPEVKFNWYVDGVEVHNAKTKPREEQYNSTYRVVSVLTVLHQDWLNGKEYKCKVSNKALPAPIEKTISKAKGQPREPQVCTLPPSREEMTKNQVSLSCAVKGFYPSDIAVEWESNGQPENNYKTTPPVLDSDGSFFLVSKLTVDKSRWQQGNVFSCSVMHEALHNHYTQKSLSLSPGK | 4.3 nM | 4210 | 30600 |  | 23900 |  |  |
| Anti-4-1BB heavy-chain antibody 1016P0010B11, hIgG1 (antibody, V domains shown, HCAb (heavy chain dimer, no light chain), hIgG1 Fc; also called PR001758) VH: EVQLLESGGGLVQLGGSLRLSCAASGFTFSRYAMTWVRQAPEKGLEWVSSISGSGDDTYYGDSVKGRFTISRDNSQNTVYLQMNSLRAEDTAVYFCAKEKAGTTGDYYYNVDVWGQGTTVTVSS |  |  |  |  |  | 0.212 nM | 1640 MFI |
| Anti-4-1BB heavy-chain antibody PR001838_G53A, hIgG1 (antibody, V domains shown, HCAb (heavy chain dimer, no light chain), hIgG1 Fc; also called PR004469) VH: EVQLLESGGGLVQPGGSLRLSCAASGFTFSNYAMSWFRQPPETGLKWVSSIDASGGDTYYADSVKGRFTISRDNSKNTLYLQMNSLRAEDTAVYYCAKEGSHGTDDSHYDVDVWGQGTTVTVSS |  |  |  |  |  | 1.29 nM | 109000 MFI |
| Anti-4-1BB heavy-chain antibody 1016P0020G4, hIgG1 (antibody, V domains shown, HCAb (heavy chain dimer, no light chain), hIgG1 Fc; also called PR001836) VH: EVQLLESGGGLVQPGGSLRLSCAASGFIFSNFAMTWVRQPPEKGLKWVSSINGSGFNTYYTDSVKGRFTISRDNSRNTLYLQMNRLTAEDTAVYFCAKEGSSETDDHYYNVDVWGQGTTVTVSS |  |  |  |  |  | 0.28 nM | 1830 MFI |
| Anti-4-1BB heavy-chain antibody 1016P0042C5, hIgG1 (antibody, V domains shown, HCAb (heavy chain dimer, no light chain), hIgG1 Fc; also called PR001771) VH: EVQLLESGGGLVQPGGSLRLSCAASGFTFSNYAMTWVRQPPGKGLEWVSSISGSGGSTYYADSVKGRFTISRDNSKNTLYLQMNSLRAEDTAVYYCAKEGTGTTSDYYYNVDVWGQGTTVTVSS |  |  |  |  |  | 0.532 nM | 1720 MFI |
| Anti-4-1BB heavy-chain antibody 1016P0037D2, hIgG1 (antibody, V domains shown, HCAb (heavy chain dimer, no light chain), hIgG1 Fc; also called PR001840) VH: EVQLVESGGGLVQPGGSLRLSCAASGFTFSSYWMHWVRQAPGKGLVWVSRINSDGSSTSYADSVQGRFTISRDNAKNTLYLQMNSLRAEDTAVYYCVRKGSSSYYHYSIEDDWGQGTLVTVSS |  |  |  |  |  | 0.43 nM | 1790 MFI |
